Measured values reported in patent US20110269679A1, “INHIBITORS OF AMYLOID FIBRIL FORMATION AND USES THEREOF” (priority 2004, published 2011).
Entries after “also recorded” stand apart in the source; their conditions may differ.

Tests used:
[1] = molecular target: T1, IAPP 1-37 (Homo sapiens, UniProt P10997); assay: Circular dichroism (CD): IAPP random coil to β-sheet conformational transition; details: for CD activity of modified or truncated tripeptides compared with ANF: significantly lower molar ratios than ANF
T1 sequence (P10997 34-70): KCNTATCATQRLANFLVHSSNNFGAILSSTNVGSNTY
Text: 1. Circular Dichroism (CD): Amyloidogenic peptides and proteins undergo a conformational transition from a native to β-sheet conformation. […] In the case of peptides such as Aβ and IAPP, the non-fibrillar forms are essentially random coils that subsequently convert to a β-sheet under different conditions of pH and concentration.
CD provides a global view of the peptide secondary structure over an extended time course that can be used to monitor the amyloid conformational transition (L e. , diagnostic absorption minima for β-conformation at 218 nm). IAPP is initially treated with hexafluroisopropanol (HFIP) and trifluroacetic acid (TFA), to ensure it is in a monomeric form. IAPP 1-37 (50 μM) in the presence of inhibitors (50 μM-1.0 mM) are compared to controls, with spectra collected twice daily for a period of 72 hours. (β-sheet conversion and precipitation occurs at 48-72 hrs depending on conditions used.) Inhibitors can be evaluated for their ability to maintain IAPP in a random or non-β conformation. This can be determined by direct comparisons of the spectra obtained, and by quantitative analyses using deconvolution algorithms (e.g., Jasco J720 spectropolarimeter contained in the inventor's laboratory, and equipped with Spectra Manager).

[2] = molecular target: T1, IAPP 1-37; assay: Negative stain electron microscopy of IAPP amyloid fibrils; details: negatively-stained preparations, IAPP + peptide, molar ratio 1:10
Text: 2. Negative Stain Electron Microscopy: IAPP amyloid morphology and relative density of the fibrils can be examined by transmission EM techniques. This provides information of the morphology of the aggregates formed (e.g., amorphous, fibrillar, truncated/protofilament structures, and/or abnormal lateral aggregation profiles). In addition, scanning of multiple grids and samples can be performed by an experienced EM technician who will assess the relative amount of fibrils formed in the presence of each inhibitor. This supporting evidence can be used to rank the relative activities of the inhibitors. Aliquots are taken from the samples used for CD analysis, and applied to pioloform coated grids, blotted dry, and stained with phosphotungstic acid (pH 7.0).

[3] = test system: rat insulinoma line (RIN-1056A) exposed to exogenous IAPP 1-37; assay: IAPP amyloid toxicity assay in RIN cells (AlamarBlue cell viability); assay type: cell-based; details: molar ratio of 1:20 [IAPP:inhibitor]
Protocol: 3. IAPP Amyloid Toxicity: Amyloid fibril cytotoxicity may be due to an apoptotic mechanism and/or mechanical disruption of the plasma membrane. The ability of inhibitors to prevent toxicity in cells exposed to exogenous amyloid is another indication of activity that is assessed. A rat insulinoma line (RIN-1056A) having β-cell-like characteristics is exposed to 10 μM IAPP 1-37 with inhibitors added simultaneously to the medium at 1-20 fold excess. IAPP and inhibitors are not pre-mixed, but are added separately to the cell culture medium to maximize the similarities to conditions in vivo.
Toxicity is assayed both over the short (sampling every 2 hr over an 8-10 hr period) and long term (every 12 hr for a period of 6-7 days). Data from these investigations will indicate if the inhibitors are able to regulate this more physiological action of IAPP.

[4] = molecular target: T2, full-length IAPP1-37 (Homo sapiens, UniProt P10997); details: earlier work, Fraser WO 02/24727; cited from earlier work
T2 construct: When combined with full-length IAPP1-37 at relatively low molar ratios of 1:5 and 1:1
T2 sequence (P10997 34-70): T1 sequence (P10997 34-70)

Row | Substance | relative level/density and morphology of IAPP amyloid fibrils (EM) [2] | activity in the RIN-cell toxicity assay using exogenous IAPP [3] | inhibitory activity of hexapeptide fragments [4] | other results
1 | AGF: tripeptide ANF substituted with G at its second position (Tripeptide derived from human IAPP) | significantly reduced density of fibrils | more activity than ANG (SEQ. ID. NO. 27) or ANF (SEQ. ID. NO. 24) |  | CD activity of modified or truncated tripeptides compared with ANF [1]: similar, but more potent, activities at significantly lower molar ratios
2 | ANF: truncated tripeptide of hexapeptide ANFLVH, IAPP residues 13-15 (Tripeptide derived from human IAPP) | reduced the relative levels of fibrils, and altered the morphology of the aggregates which were formed; also recorded: reduced the relative levels of fibrils and altered the morphology of the aggregates which were formed | showed activity; also recorded: greater activity than the tetra- or penta-peptide |  | inhibition of IAPP conformational change from random coil to β-sheet (CD) ([1]; combined with IAPP at a molar ratio of 1:10): inhibited this conformational change
3 | ANFL: tetrapeptide sub-fragment of hexapeptide ANFLVH (Tetrapeptide derived from human IAPP) |  | showed activity |  | 
4 | ANFLV: pentapeptide sub-fragment of hexapeptide ANFLVH (Pentapeptide derived from human IAPP) |  | showed activity |  | 
5 | ANFLVH: original hexapeptide from the IAPP 8-20 domain (13-18), disclosed in WO 02/24727 (Hexapeptide derived from human IAPP) |  |  | displayed inhibitory activity | 
6 | ANG: tripeptide ANF substituted with G at its third position (Tripeptide derived from human IAPP) | lower activity based upon the presence of multiple aggregate forms | lower activity in the toxicity assay |  | 
7 | GAILSS: hexapeptide from the IAPP20-29 region, disclosed in WO 02/24727 (Hexapeptide derived from human IAPP) |  |  | displayed inhibitory activity | 
8 | GNF: tripeptide ANF substituted with G at its first position (Tripeptide derived from human IAPP) | significantly reduced density of fibrils | more activity than ANG (SEQ. ID. NO. 27) or ANF (SEQ. ID. NO. 24) |  | CD activity of modified or truncated tripeptides compared with ANF [1]: similar, but more potent, activities at significantly lower molar ratios
9 | NFL: truncated tripeptide of hexapeptide ANFLVH (Tripeptide derived from human IAPP) | active |  |  | CD activity of modified or truncated tripeptides compared with ANF [1]: similar, but more potent, activities at significantly lower molar ratios
10 | NFLVHS: hexapeptide from the IAPP 8-20 domain, disclosed in WO 02/24727 (Hexapeptide derived from human IAPP) |  |  | displayed inhibitory activity | 
11 | SNNFGA: hexapeptide from the IAPP20-29 region, disclosed in WO 02/24727 (Hexapeptide derived from human IAPP) |  |  | displayed inhibitory activity | 
